Blank lines part the entries; values can stand above or below the binder they belong to.
How the values were obtained:
[1] = target: T1, full length monkey MSR1 on HEK293.mfMSR1 cells (Macaca fascicularis, UniProt A0A2K5UWE2 1-451); experiment: ECL cell binding (Meso Scale), ratio to isotype control compared with parental HEK293
T1 construct: whole, on cells; also called mfMSR1 engineered cells
T1 sequence: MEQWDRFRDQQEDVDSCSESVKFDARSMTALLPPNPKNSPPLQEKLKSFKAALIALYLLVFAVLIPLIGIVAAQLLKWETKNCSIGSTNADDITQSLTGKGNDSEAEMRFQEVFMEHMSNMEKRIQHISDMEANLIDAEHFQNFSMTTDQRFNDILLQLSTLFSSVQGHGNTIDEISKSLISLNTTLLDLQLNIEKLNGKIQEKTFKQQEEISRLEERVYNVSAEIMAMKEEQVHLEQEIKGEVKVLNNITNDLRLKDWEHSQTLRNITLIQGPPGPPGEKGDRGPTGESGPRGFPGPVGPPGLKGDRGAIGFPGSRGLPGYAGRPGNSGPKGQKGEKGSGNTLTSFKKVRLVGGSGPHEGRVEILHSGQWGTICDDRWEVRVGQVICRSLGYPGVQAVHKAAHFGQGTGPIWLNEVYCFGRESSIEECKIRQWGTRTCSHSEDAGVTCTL

[2] = target: T2, monkey MSR1 extracellular domain expressed with a N-terminal hexahistidine-myc-myc tag (HMM-mfMSR1) (monkey (Macaca fascicularis)); experiment: SPR Biacore, 25C, mAb captured by anti-human Fc, MSR1 as analyte;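 also: Half-life of complex dissociation derived from kinetic rates, obtained by fitting Biacore 4000 sensorgrams to a 1:1 model including mass transport, run in HBS-ET buffer at pH 7.4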
T2 chain: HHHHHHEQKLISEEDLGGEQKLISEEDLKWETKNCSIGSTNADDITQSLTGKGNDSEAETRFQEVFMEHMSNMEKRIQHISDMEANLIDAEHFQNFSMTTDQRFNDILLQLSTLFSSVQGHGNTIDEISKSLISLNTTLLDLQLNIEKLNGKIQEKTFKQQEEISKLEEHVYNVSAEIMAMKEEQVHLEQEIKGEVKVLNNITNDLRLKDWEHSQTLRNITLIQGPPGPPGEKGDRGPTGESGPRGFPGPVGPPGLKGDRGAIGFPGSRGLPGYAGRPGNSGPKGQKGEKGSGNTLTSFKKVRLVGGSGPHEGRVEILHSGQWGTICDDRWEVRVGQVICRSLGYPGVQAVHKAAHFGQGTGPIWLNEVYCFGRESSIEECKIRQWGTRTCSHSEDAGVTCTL
Method: (§1) Binding affinities and kinetic constants of human anti-MSR1 antibodies for different MSR1 reagents were determined by real-time surface plasmon resonance (Biacore 4000). All binding studies were performed in 10 mM HEPES, 150 mM NaCl, 3 mM EDTA, and 0.05% v/v Surfactant Tween-20, pH 7.4 (HBS-ET) running buffer at 25° C. and 37° C.
(§2) The association rate (kₐ) and dissociation rate (kd) were determined by fitting the real-time binding sensorgrams to a 1:1 binding model with mass transport limitation using Scrubber 2.0 c curve-fitting software.

[3] = target: T3, human MSR1 extracellular domain expressed with a N-terminal nonahistidine tag (His9-hMSR1); R&D Systems, Cat … (human, UniProt P21757 77-451); experiment: as above
T3 construct: extracellular domain; Bought protein; also called His-hMSR1
T3 sequence: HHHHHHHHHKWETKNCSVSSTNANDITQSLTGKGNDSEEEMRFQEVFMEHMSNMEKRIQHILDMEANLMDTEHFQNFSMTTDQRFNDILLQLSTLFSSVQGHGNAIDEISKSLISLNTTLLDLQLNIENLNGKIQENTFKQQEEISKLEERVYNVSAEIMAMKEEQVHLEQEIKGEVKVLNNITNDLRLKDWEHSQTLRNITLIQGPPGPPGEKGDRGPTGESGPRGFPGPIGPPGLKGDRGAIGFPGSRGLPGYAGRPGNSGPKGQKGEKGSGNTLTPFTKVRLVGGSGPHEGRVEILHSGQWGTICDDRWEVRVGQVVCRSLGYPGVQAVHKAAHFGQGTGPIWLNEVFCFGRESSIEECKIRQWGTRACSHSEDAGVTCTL
Method: as §1, §2

[4] = target: T3, human MSR1 extracellular domain …; experiment: SPR Biacore, 25C, mAb captured by anti-human Fc, MSR1 as analyte; calculated from kd fixed at 1.00E-05
Method: as §1, §2

[5] = target: T2, monkey MSR1 extracellular domain …; experiment: as above
Method: as §1, §2

[6] = target: T4, human MSR1 extracellular domain expressed with a N-terminal nonahistidine tag (human, UniProt P21757 77-451); experiment: SPR 37C, mAb captured; no dissociation seen, kd fixed
T4 construct: extracellular domain; Bought reagent; also called His9-hMSR1
T4 sequence: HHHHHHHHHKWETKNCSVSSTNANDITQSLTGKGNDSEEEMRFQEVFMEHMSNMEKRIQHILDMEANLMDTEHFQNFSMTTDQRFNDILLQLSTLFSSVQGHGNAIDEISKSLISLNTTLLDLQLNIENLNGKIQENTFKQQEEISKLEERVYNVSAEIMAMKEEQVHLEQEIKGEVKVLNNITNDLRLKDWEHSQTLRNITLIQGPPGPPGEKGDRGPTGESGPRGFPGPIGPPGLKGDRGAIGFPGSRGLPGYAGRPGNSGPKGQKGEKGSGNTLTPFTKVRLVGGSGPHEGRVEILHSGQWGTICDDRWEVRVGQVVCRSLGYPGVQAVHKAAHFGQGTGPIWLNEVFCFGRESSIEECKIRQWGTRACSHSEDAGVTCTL
Method: as §1, §2

[7] = target: T5, monkey MSR1 extracellular domain expressed with a N-terminal hexahistidine-myc-myc tag (monkey (Macaca fascicularis)); experiment: as above
T5 construct: also called HMM-mfMSR1
T5 chain: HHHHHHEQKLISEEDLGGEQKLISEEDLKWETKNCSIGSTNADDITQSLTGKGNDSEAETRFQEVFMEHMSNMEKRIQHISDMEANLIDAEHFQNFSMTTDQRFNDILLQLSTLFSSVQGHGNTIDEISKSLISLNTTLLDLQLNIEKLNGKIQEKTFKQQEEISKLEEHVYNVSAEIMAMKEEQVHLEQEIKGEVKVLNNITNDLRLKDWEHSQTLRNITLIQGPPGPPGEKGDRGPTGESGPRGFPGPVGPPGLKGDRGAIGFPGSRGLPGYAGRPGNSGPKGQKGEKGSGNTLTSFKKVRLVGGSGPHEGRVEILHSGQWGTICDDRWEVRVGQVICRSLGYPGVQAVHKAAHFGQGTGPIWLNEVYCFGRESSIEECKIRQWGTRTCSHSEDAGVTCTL
Method: as §1, §2

[8] = target: T6, full length monkey MSR1 on HEK293.mfMSR1 cells (Macaca fascicularis, UniProt A0A2K5UWE2 1-451); experiment: ECL cell binding, HEK293.mfMSR1
T6 construct: whole, on cells
T6 sequence: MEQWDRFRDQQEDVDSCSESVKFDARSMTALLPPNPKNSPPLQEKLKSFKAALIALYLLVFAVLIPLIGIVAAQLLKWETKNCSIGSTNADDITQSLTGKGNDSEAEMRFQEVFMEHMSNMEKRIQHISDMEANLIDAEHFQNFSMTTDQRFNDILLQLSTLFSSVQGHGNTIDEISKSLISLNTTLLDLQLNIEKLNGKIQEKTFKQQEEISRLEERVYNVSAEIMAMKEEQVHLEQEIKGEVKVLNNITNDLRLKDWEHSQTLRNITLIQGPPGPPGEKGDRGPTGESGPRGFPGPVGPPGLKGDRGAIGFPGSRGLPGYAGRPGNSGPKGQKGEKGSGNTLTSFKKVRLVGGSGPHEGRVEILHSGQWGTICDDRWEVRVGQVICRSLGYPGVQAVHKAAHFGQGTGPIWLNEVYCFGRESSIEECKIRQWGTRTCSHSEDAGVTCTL

[9] = target: T7, mouse MSR1 on RAW264.7 cells (mouse, UniProt P30204 1-458); experiment: flow cytometry, RAW264.7 cells, 10 ug/mL;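 also: antibodies bound to RAW264.7 cells for 30 min on ice after Fc block with mouse IgG, S/N is MFI relative to unstained cells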
T7 construct: whole, on cells
T7 sequence (looked up): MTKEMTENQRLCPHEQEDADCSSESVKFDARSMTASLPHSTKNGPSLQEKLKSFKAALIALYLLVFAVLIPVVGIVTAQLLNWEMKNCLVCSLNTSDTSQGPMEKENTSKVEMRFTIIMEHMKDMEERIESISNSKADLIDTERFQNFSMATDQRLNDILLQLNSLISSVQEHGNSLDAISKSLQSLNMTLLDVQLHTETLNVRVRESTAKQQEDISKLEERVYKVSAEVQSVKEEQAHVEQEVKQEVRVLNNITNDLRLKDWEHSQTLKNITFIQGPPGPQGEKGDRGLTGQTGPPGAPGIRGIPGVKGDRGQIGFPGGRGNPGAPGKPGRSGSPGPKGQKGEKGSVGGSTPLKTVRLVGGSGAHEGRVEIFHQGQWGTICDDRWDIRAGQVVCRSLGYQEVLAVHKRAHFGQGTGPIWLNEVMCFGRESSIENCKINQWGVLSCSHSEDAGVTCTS

[10] = target: T8, full length human MSR1 with a C-terminal Myc tag on HEK293.Myc.hMSR1 cells (human, UniProt P21757 1-451); experiment: ECL cell binding, HEK293.Myc.hMSR1
T8 construct: whole, on cells
T8 sequence (looked up): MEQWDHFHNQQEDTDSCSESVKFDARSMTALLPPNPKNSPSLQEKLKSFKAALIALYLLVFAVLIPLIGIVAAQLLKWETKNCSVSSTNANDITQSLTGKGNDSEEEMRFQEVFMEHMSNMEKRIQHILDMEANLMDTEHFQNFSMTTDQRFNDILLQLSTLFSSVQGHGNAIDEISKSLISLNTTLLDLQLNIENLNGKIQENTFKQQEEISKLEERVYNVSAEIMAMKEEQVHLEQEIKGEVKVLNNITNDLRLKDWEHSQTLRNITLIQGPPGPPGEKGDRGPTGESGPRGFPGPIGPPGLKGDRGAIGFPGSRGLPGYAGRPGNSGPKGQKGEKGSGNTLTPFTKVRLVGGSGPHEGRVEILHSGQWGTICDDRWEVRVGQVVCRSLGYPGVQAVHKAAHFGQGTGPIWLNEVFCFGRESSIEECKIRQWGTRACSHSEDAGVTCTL
Method: All cells were washed once with 1×PBS with Ca²⁺/Mg²⁺ and counted with a Cellometer™ Auto T4 cell counter (Nexcelom Bioscience). Approximately 1.0×10⁴ cells were seeded separately onto 96-well carbon electrode plates [MULTI-ARRAY high bind plate, Meso Scale Diagnostics] and incubated for 1 hour at 37° C. Non-specific binding sites were then blocked by 2% BSA (w/v) in PBS with Ca²⁺/Mg²⁺ for 1 hour at room temperature. THP-1 cells were pre-incubated for 0.5 hours at room temperature in sample dilution buffer with: 1) 1 mg/mL Fc receptor block reagents to block Fc gamma receptors on THP-1 cell surface [whole molecule human IgG (Jackson Immunoresearch, Cat #009-000-003) for wells being tested with anti-MSR1-mFc antibodies or 2) whole molecule mIgG (Jackson Immunoresearch, Cat #015-000-003) for wells being tested with anti-MSR1-hFc antibodies. Antibody binding on HEK293.Myc.hMSR1, HEK293.mfMSR1 and HEK293 cells was tested without Fc receptor block reagents. […] Plates were then washed to remove unbound antibodies an AquaMax2000 plate washer with a cell washing head (MDS Analytical Technologies). […] Plates were washed and developed with Read Buffer (Meso Scale Diagnostics, Cat #R92TD-2) according to manufacturer's recommended procedure and luminescent signals were recorded with a SECTOR Imager 600 (Meso Scale Diagnostics). Luminescence intensity, measured in relative light units (RLU), was recorded to indicate the binding intensity of each antibody at the range of concentrations.

B2: H1H27766P-N297Q (antibody, V domains shown)
VH: EVQLVESGGGLVQPGGSLRLSCAASGFTFSSFAMSWVRQAPGKELEWVSSISGRGGSTYYADSVRGRFTISRDNSKITLYLQMNSLRAEDTAVYYCAKDIVFRYTSSAYWYFDLWGRGTLVTVSS
VL: not shown
notes: human IgG1 Fc with N297Q point mutation; also called H1H27766P2-N297Q; H1H27766P2
t½ [2]: 2.42 h | t½ [3]: 10.3 h

B3: H1H27732P-N297Q (antibody, V domains shown)
VH: QLQLQESGPGLVKPSETLSLTCTVSGGSISSSTYYWGWIRQPPGKGLEWIGSFYYSGSTYYNPSLKSRVTISVGTSKNQFSLKLSSVTAADTAVYFCARGGLLGRPFVIWGQGTMVTVSS
VL: DIQMTQSPSSLSASVGDRVTITCRASQGIRNDLGWYQQKPGKAPKRLIYAASSLQSGVPSRFSGSGSGTEFTLTISSLQPEDFATYYCLQHNSYPLTFGGGTKVEIKR
notes: human IgG1 Fc with N297Q point mutation
t½ [2]: 6.07 h | t½ [4]: 19.2 h

B4: H1H27762P-N297Q (antibody, V domains shown)
VH: QVQLVQSGAEVKKPGSSVKVSCKASGGTFSRYDISWVRQAPGQGLEWMGGIIPIFGTSNYAQKFQGRVTITTDESTSTVYMELSSLRSEDTAVYYCARGGRYGWFDPWGQGTLVTVSS
VL: not shown
notes: human IgG1 Fc with N297Q point mutation; also called H1H27762P2-N297Q; H1H27762P2
t½ [2]: 0.1 h | t½ [3]: 0.1 h

B6: H1H21234N (antibody, V domains shown)
VH: QVQLQESGPGLVKPSETLSLTCTVTGGSISRNYWSWIRQPPGKGLEWIGYIYYSGSIDYNPSLKSRVTISVDTSKNQFSLKLSSMTAADTAVYYCARDRWNWKYGMDVWGQGTTVIVSS
VL: EIVLTQSPGTLSLSPGERATLSCRASQTVRNNYLAWYHQKPGQAPRLLIYGASSRATGIPDRFSGSGSGTDFTLTISRLEPEDFTVYYCHQYGNSPWTFGQGTKMEIKR
notes: original human IgG1 Fc (no N297 mutation)
t½ [5]: 19.2 h | t½ [4]: 19.2 h

B9: H1H27754P-N297Q (antibody, V domains shown)
VH: EVQLVESGGGLVQPGGSLRLSCAASGFTFRTYAMTWVRQAPGKGLDWVSAITGDGGNTYYADSVKGRFTISRDNSKNTLYLQMNSLRAEDTAIYYCAKDQRFSFALYYFDYWGQGTLVTVSS
VL: DIQMTQSPSSVSASVGDRVTITCRASQGISSWLAWYQQKPGNAPKLLIYAAFSLQSGVPSRFSGSGSGTDFTLTISSLQPEDFATYYCQQANNFPWTFGQGTKVEIKR
notes: as for B3
t½ [2]: 10.9 h | t½ [4]: 19.2 h

Next, values leading:

binding result [1]: no binding (tested: 11 nM)
B1: H1xH29273P2 (antibody, V domains shown)
VH: QVQLVESGGGVVQSGRSLRLSCAAAGFTFSNYGMHWVRQAPGKGLEWVALMSFDGSDKYYADSVKGRFTISRDNSKNTLYLQMNSLRAEDTALYYCAKGYDFWSGYWDYWGQGTLVTVSS
VL: not shown
notes: The H1xH prefix is not explained for the anti-MSR1 antibodies; Fc form as tested not clear

t½ [2]: 9.88 h | t½ [4]: 19.2 h
B5: H1H21234N-N297Q (antibody, V domains shown)
VH: QVQLQESGPGLVKPSETLSLTCTVTGGSISRNYWSWIRQPPGKGLEWIGYIYYSGSIDYNPSLKSRVTISVDTSKNQFSLKLSSMTAADTAVYYCARDRWNWKYGMDVWGQGTTVIVSS
VL: EIVLTQSPGTLSLSPGERATLSCRASQTVRNNYLAWYHQKPGQAPRLLIYGASSRATGIPDRFSGSGSGTDFTLTISRLEPEDFTVYYCHQYGNSPWTFGQGTKMEIKR
notes: as for B3

Kd [6]: ≤ 0.0127 nM | Kd [7]: ≤ 0.0133 nM | binding signal ratio to isotype control (11 nM) [8]: 35 fold | MFI [9]: 7050 | S/N [9]: 3 | binding signal ratio to isotype control (11 nM) [10]: 43 fold
B7: H1H21234N-N297Q (antibody, human IgG1, V domains shown)
VH: QVQLQESGPGLVKPSETLSLTCTVTGGSISRNYWSWIRQPPGKGLEWIGYIYYSGSIDYNPSLKSRVTISVDTSKNQFSLKLSSMTAADTAVYYCARDRWNWKYGMDVWGQGTTVIVSS
VL: EIVLTQSPGTLSLSPGERATLSCRASQTVRNNYLAWYHQKPGQAPRLLIYGASSRATGIPDRFSGSGSGTDFTLTISRLEPEDFTVYYCHQYGNSPWTFGQGTKMEIKR
notes: human IgG1 Fc with N297Q

Kd [6]: ≤ 0.0148 nM | Kd [7]: ≤ 0.0138 nM | binding signal ratio to isotype control (11 nM) [8]: 31 fold | binding signal ratio to isotype control (11 nM) [10]: 32 fold
B8: H1H21234N (antibody, human IgG1, V domains shown)
VH: QVQLQESGPGLVKPSETLSLTCTVTGGSISRNYWSWIRQPPGKGLEWIGYIYYSGSIDYNPSLKSRVTISVDTSKNQFSLKLSSMTAADTAVYYCARDRWNWKYGMDVWGQGTTVIVSS
VL: EIVLTQSPGTLSLSPGERATLSCRASQTVRNNYLAWYHQKPGQAPRLLIYGASSRATGIPDRFSGSGSGTDFTLTISRLEPEDFTVYYCHQYGNSPWTFGQGTKMEIKR
notes: original human IgG1 Fc
